Where “and” joins values, the source holds several entries; their conditions need not be identical. Equal entries are not always repeated. Where no end group is shown, it is not given here.
What was measured:
[1] = target: T1, USP2 (UniProt O75604 259-605, limits assumed); experiment: cell-based or functional assay
T1 sequence (looked up): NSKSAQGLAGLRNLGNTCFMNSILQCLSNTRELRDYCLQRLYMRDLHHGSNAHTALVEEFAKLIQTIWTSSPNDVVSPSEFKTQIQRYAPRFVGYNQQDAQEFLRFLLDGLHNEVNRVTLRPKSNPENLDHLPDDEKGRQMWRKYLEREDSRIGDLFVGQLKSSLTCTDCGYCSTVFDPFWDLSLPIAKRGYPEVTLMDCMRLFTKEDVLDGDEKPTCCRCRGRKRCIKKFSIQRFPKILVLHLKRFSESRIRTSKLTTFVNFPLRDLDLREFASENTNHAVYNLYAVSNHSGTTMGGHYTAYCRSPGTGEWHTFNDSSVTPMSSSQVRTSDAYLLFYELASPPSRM

[2] = target: T2, UCHL3 (UniProt P15374 1-230); experiment: cell-based or functional assay
T2 sequence (looked up): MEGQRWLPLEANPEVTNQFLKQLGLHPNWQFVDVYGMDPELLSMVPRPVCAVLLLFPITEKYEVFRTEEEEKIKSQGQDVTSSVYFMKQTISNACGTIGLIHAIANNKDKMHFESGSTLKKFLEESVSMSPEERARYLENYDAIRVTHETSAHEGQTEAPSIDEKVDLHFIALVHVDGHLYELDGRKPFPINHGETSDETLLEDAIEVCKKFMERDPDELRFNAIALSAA

[3] = target: T3, USP5 (UniProt P45974 1-858, limits assumed); experiment: cell-based or functional assay
T3 sequence (looked up): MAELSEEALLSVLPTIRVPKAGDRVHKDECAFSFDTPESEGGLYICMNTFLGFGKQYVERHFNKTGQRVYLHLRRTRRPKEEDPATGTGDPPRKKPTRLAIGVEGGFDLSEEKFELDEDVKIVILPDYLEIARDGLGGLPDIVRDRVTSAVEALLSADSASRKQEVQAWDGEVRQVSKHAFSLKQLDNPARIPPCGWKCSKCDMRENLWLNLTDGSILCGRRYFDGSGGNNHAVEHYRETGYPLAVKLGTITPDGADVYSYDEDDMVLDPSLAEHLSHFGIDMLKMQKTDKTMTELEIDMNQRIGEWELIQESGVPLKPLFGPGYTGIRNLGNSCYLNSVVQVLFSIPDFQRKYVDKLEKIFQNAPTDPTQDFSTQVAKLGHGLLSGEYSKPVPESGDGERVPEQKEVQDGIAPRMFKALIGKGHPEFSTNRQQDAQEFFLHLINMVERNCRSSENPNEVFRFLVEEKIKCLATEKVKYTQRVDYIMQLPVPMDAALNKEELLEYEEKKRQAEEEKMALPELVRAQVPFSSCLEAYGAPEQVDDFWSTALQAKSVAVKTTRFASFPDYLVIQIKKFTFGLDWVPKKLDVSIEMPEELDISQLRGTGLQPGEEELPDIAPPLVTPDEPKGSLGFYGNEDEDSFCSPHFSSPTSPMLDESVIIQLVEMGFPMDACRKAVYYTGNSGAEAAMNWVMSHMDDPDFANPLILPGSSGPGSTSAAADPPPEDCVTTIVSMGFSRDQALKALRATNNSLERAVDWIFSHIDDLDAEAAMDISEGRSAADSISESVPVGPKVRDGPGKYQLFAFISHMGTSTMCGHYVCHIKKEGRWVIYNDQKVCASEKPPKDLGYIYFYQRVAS

[4] = target: T4, USP30 (active enzyme in the ubiquitin-AMC assay) (Homo sapiens (Human), UniProt Q70CQ3 57-517, limits assumed); experiment: cell-based or functional assay
T4 sequence: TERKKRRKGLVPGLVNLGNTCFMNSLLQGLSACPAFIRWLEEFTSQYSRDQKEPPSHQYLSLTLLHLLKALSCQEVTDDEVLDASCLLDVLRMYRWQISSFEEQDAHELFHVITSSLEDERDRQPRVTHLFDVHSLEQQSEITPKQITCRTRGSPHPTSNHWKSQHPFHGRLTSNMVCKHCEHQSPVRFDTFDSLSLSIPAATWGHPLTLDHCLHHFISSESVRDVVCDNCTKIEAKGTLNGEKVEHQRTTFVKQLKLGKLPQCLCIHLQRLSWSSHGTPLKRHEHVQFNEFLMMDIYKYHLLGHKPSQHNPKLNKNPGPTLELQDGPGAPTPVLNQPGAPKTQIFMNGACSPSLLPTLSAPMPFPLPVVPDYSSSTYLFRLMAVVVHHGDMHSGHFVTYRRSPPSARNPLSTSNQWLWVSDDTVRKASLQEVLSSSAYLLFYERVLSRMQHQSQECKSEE

[5] = target: T5, biotinylated USP30_cd (USP30 catalytic domain with C77A mutation) (Homo sapiens (Human), UniProt Q70CQ3 57-517, limits assumed, biotinylated (site not stated)); experiment: spot phage ELISA on biotinylated USP30_cd
T5 sequence: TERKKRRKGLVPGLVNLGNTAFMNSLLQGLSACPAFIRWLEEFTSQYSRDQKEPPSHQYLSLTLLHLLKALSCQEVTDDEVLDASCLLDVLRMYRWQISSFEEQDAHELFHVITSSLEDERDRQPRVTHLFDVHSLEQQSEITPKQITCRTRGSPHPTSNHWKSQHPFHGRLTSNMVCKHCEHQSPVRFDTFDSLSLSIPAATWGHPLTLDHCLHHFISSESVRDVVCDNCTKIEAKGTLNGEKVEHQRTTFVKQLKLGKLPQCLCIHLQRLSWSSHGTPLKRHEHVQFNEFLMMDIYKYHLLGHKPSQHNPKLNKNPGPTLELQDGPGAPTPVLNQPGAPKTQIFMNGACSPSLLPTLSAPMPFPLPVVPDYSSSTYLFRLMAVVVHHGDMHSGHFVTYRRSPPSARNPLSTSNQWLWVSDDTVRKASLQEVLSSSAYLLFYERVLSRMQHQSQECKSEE
Source text: The selection identified peptide USP30_{—}3 and USP30_{—}8, which had moderate spot ELISA signals (signal/noise ratios of ˜5).

B1: peptide USP30-3 (peptide)
peptide: PLYCFYDLTYGYLCFY
notes: also called pep3; parent USP30-3
- IC50, inhibition of ubiquitin-AMC cleavage (initial rate, fluorescence) [1]: ~100 µM and > 200 µM
- fold higher IC50 than for USP30 [1]: > 10 fold
- IC50, inhibition of ubiquitin-AMC cleavage (initial rate, fluorescence) [2]: > 200 µM
- IC50, inhibition of ubiquitin-AMC cleavage (initial rate, fluorescence) [3]: 49.4 µM
- fold higher IC50 than for USP30 [3]: > 6 fold
- IC50, inhibition of ubiquitin-AMC cleavage (initial rate, fluorescence) [4]: 8 µM
- signal/noise ratio (spot ELISA) [5]: ~5

B2: peptide USP30-8 (peptide)
peptide: VSRCYIFWNEMFCDVE
modifications: not fully specified (bridges); cysteine pairing not given here
notes: also called pep8
- signal/noise ratio (spot ELISA) [5]: ~5

From patent publication US20150344888A1 (Genentech, published 2015)
